The target in one experiment is Soluble Aβ 1-42 (UniProt P05067). Kind of experiment: BIAcore 2000 SPR, antibody captured by anti-Ig, soluble Aβ in flow. (In SPR one partner is held on a chip, and binding of the other changes the refractive index at the surface.)
A further experiment addresses Soluble Aβ 1-40 (UniProt P05067). The description is as above.

Turning to Murine anti-Aβ antibody 266, the Kd in the experiment with Soluble Aβ 1-42 and with Soluble Aβ 1-40 was 0.004 nM throughout.

For anti-Aβ murine antibody 4G8, the Kd (commonly the equilibrium constant for the complex coming apart) came to 24 nM in the experiment with Soluble Aβ 1-42 and 23 nM with Soluble Aβ 1-40.

Regarding anti-Aβ murine antibody 21F12, in the experiment with Soluble Aβ 1-42, the Kd is 4.4 nM.

For the origin of these results see US20040241164A1.
